Reference: patent US20100298213A1, “Pharmaceutically Active Insulin Receptor-Modulating Molecules” (Novo Nordisk A/S, priority 2004, published 2010)
Square brackets hold non-standard residues; d marks the D form. Ends that are not written are not given here. Dip = N[C@H](C(=O)O)C(c1ccccc1)c1ccccc1; Orn = NCCC[C@H](N)C(=O)O; Aib = CC(C)(N)C(=O)O

Each molecule was assayed against human IR (HIR) (Homo sapiens, UniProt P06213) (assay: Human IR affinity (Kd)). Conditions: Kd value expressed relative to that of human insulin in the same assay.
Assay type: binding

| Kd (HIR) rel. to HI [%] | Molecule |
| --- | --- |
| 12 | Ac-SLEEEW[Aib]QIQCEVWGRGCPSESFYDWFERQL (cysteine pairing not given here) [compound 875] |
| 4 | Ac-SLEEEWAQIQCEVWGRGCPK(ε-carboxyfluorescein)ESFYGWFERQLG [compound 871] |
| 4 | SLEHEWAQIQCEVWGRGCPSEPFYGWFLAQLG [compound 799] |

The next lines start with the molecule.

| Molecule | Kd (HIR) rel. to HI [%] |
| --- | --- |
| Ac-SLEEEWAQIQCEVWG[Orn]GCPSESFYGWFERQLG (cysteine pairing not given here) [compound 805] | 24 |
| Ac-SLEHEW[Aib]QIQCEVWGRPCPSEP[Dip]YGWFHEQLGPP (cysteine pairing not given here) [compound 872] | 6 |
| Ac-SLE-Aib-EW-Aib-QIQCEVWGRPCPSEP-Dip-YGWFHEQLGPP [compound 874] | 8 |
| Ac-SLEEEWAQIQCEVWGRGC-pox-FYGWFERQLG [compound 802] | 6 |
| SLEHEWAQIQCEVWGRGCPSEPFYGWFERQLG [compound 800] | 07 |
| Ac-SLE-Aib-EW-Aib-QIQCEVWGRGC-pox-FYGWFE-Aib-QLG [compound 806] | 3 |

The molecules below were run against T1, pig insulin receptor isoform without exon 11 (pig, UniProt F1SCK8 28-746; F1SCK8 751-1370) (assay: receptor binding, standard methods (FIG. 2)). Conditions: not given.
T1 construct: also called PIR-11; PIR - 11
Text: (§1) A number of IRBPs (S519; S557; S597; S636; S667; S733; S671; S660; S696; S574; S700; S626; and S726), some of which described in the prior patent documents, were applied to A and B isoforms (−11 and +11 isoforms) of the human, rat, and pig insulin receptors (HIR, RIR, and PIR) using standard methods.

T1 sequence (alpha, as listed by the source limits assumed, stated change not applied, form in doubt, chain 1 of 2): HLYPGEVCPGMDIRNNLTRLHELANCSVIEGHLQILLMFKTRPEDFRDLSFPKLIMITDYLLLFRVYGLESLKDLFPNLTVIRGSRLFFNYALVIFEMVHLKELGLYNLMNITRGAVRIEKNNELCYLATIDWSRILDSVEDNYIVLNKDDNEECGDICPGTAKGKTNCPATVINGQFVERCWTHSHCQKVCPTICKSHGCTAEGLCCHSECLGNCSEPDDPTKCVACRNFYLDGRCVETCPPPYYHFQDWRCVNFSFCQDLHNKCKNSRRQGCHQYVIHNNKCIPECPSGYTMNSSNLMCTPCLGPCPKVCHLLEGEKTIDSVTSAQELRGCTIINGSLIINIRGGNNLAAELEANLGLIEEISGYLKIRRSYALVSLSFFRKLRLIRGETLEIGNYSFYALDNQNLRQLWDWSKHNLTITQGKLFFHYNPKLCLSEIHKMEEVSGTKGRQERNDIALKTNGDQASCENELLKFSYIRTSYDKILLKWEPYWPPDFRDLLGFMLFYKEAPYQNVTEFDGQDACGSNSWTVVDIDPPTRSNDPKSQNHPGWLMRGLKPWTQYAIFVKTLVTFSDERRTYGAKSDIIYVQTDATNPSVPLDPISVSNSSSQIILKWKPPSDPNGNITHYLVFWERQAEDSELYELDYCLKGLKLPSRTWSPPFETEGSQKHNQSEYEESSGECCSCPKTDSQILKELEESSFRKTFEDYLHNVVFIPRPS
T1 sequence (beta, as listed by the source limits assumed, stated change not applied, form in doubt, chain 2 of 2): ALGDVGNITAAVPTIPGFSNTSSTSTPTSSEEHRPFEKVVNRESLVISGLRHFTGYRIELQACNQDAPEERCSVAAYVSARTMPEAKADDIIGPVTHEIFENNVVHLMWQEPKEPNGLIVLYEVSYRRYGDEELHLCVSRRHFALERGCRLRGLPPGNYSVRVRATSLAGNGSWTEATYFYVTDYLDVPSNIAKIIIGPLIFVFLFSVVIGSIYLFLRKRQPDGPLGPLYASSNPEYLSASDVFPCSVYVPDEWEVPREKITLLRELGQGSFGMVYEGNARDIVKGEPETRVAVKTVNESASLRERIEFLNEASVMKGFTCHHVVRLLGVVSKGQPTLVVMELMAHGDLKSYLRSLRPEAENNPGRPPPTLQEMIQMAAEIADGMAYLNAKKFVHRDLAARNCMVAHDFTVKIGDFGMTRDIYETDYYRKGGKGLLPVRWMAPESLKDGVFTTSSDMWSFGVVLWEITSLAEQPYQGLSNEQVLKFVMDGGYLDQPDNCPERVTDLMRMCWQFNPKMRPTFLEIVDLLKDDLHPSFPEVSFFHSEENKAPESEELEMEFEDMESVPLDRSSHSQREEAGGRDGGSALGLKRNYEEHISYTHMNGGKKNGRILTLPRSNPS

| Molecule | relative affinity |
| --- | --- |
| Ac-SLEEEWAQIQCEVWGRGCPSESFYDWFERQLG (cysteine pairing not given here) [S671] | 23 |

The molecules below were run against T2, human insulin receptor isoform without exon 11 (human, UniProt P06213-2 28-1370, limits assumed) (assay: receptor binding, standard methods (FIG. 2)). Conditions: not given.
T2 construct: also called HIR-11; HIR - 11
Text: as §1

| Molecule | relative affinity |
| --- | --- |
| Ac-SLEEEWAQIQCEVWGRGCPSESFYDWFERQLG (cysteine pairing not given here) [S671] | 86 |

Each molecule was assayed against T3, rat insulin receptor isoform without exon 11 (rat, UniProt P15127-2 27-1371, limits assumed) (assay: receptor binding, standard methods (FIG. 2)). Conditions: not given.
T3 construct: also called RIR-11; RIR - 11
Text: as §1

T3 sequence (P15127 other isoform, or with tags, fused parts or gaps limits assumed): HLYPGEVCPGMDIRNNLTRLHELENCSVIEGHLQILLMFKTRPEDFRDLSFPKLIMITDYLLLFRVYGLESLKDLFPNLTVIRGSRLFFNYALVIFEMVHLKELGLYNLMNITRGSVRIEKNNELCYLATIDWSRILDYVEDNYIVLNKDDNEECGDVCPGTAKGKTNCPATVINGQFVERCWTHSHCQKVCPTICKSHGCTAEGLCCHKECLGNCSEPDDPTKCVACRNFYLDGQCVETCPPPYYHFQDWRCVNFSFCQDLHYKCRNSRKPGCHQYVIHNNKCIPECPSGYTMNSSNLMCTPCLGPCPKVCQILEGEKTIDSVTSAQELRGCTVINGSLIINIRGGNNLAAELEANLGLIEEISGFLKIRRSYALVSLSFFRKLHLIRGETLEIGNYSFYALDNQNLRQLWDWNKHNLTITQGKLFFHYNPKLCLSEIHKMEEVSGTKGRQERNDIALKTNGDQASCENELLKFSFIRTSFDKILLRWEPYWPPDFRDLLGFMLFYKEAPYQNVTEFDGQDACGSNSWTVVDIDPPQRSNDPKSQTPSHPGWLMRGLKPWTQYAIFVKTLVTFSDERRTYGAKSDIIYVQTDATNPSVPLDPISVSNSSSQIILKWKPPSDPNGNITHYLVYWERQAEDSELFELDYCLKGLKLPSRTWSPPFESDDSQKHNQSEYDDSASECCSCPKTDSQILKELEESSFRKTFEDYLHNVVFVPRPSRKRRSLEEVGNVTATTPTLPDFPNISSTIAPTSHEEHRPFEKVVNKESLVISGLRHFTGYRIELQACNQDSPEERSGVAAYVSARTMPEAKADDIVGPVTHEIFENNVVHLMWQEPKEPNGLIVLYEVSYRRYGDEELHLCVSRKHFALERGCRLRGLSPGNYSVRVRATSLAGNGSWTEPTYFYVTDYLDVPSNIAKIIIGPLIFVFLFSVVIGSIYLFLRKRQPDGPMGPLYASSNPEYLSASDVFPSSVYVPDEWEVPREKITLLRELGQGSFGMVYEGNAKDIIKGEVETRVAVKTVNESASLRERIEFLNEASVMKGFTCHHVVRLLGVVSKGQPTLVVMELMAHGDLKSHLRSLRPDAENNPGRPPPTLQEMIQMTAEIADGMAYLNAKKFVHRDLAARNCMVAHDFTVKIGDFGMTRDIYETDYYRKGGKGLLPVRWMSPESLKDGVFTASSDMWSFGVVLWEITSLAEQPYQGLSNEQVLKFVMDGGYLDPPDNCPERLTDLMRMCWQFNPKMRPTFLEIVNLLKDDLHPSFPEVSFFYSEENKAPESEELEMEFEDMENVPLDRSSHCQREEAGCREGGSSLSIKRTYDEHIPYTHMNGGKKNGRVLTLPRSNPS

| Molecule | relative affinity |
| --- | --- |
| Ac-SLEEEWAQIQCEVWGRGCPSESFYDWFERQLG (cysteine pairing not given here) [S671] | 39 |

Each molecule was assayed against insulin receptor on mouse adipocytes (mouse, UniProt P15208 28-1372) (assay: cell-based or functional assay). Conditions: not given.
Sequence of insulin receptor on mouse adipocytes (P15208 28-1372): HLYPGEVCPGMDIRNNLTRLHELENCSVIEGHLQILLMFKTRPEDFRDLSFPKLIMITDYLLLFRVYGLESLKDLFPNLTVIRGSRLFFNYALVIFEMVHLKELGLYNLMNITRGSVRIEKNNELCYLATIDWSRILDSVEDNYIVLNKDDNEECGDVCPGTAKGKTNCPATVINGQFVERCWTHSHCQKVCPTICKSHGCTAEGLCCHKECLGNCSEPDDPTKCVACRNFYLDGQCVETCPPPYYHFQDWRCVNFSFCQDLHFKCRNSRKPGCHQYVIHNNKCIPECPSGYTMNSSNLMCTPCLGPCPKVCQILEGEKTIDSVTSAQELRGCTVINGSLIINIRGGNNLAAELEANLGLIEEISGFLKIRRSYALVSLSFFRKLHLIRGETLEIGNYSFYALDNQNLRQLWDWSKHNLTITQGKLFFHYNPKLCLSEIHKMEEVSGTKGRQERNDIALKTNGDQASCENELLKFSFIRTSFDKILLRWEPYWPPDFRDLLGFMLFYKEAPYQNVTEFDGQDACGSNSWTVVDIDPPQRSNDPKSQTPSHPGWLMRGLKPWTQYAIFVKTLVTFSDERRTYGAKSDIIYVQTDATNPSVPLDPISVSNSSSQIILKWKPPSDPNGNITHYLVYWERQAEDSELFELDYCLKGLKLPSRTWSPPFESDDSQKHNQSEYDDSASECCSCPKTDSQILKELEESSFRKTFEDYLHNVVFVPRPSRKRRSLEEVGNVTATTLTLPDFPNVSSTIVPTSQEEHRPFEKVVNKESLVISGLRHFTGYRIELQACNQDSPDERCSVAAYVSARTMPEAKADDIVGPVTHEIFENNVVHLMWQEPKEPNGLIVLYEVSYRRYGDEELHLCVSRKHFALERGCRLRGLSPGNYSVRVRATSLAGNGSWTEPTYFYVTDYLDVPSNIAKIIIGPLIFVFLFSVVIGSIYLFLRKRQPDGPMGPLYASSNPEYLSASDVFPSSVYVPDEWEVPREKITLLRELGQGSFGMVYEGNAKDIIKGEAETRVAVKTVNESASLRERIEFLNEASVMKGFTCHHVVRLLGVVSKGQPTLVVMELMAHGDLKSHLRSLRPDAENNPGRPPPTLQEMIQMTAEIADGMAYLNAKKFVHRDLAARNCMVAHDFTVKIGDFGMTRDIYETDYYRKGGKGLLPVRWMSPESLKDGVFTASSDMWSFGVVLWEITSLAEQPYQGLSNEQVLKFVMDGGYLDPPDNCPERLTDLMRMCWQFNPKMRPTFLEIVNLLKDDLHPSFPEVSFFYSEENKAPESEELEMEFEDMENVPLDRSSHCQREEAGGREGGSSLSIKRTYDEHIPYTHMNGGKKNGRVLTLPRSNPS

| EC50 (FFC) [nM] | EC50 (FFC) rel. to HI [%] | Molecule |
| --- | --- | --- |
| 0.78 | 5 | Ac-HGLEEEWAQIQCEVWGRGCPSESFYDWFEAQLHA (cysteine pairing not given here) [639] |
| 4.3 | 1.5 | Ac-SLEEEWAQVECEVYGRGCPSESFYDWFERQL (cysteine pairing not given here) [699] |
| 7.7 | 0.8 | SLEEEWAQVECEVYGRCPSESFYDWFERQL [682] |
| 39 | 0.1 | Ac-SLEEEWAQIECEVYGRGCPSEGFYNAIELLS (cysteine pairing not given here) [637] |
| 16 | 0.4 | SLEEHWAQVECEVYGRGCPSESFYDWFERQL [680] |
| 680 | – | SLEEEWAQHECEVYGRGCPSESFYDWFERQL [688] |
| 15 | 0.4 | SLEEEWAQVECEVYQRGCPSESFYDWFERQL [684] |
| 190 | 0.03 | SLEEHWHQVECEVYHRHCPSESFYDWFERQL [698] |
| 13 | 0.4 | SLEEEWGQVECEVYGRGCPSESFYDWFERQL [681] |
| 16 | 0.4 | SLEEVWAQVECEVYGRGCPSESFYDWFERQL [690] |
| 2.1 | 2.9 | SLEEEWAQVECEVYGRNCPSESFYDWFERQL [683] |
| 25 | 0.3 | Ac-SLEEEWAQIQAEVWGRGAPSESFYDWFERQL [672] |
| 0.1 | 65 | Ac-SLEEEWAQIQCEVWGRGCPSESFYDWFERQLG (cysteine pairing not given here) [S671] |
| 0.097 | 57 | Ac-SLEEEWAQIQCELWGRGCPSESFYDWFERQL (cysteine pairing not given here) [643] |

The next lines start with the molecule.

| Molecule | EC50 (FFC) [nM] | EC50 (FFC) rel. to HI [%] |
| --- | --- | --- |
| Ac-SLEEEWAQIQCEVWGRGCPSESFYDWFEAQLHA (cysteine pairing not given here) [634] | 0.083 | 66 |
| YEEESFYGWFERQLGEE [732] | > 2000 | – |
| Ac-SLEHEWAQIHCEVYGRGCPSESFYHWFERQL (cysteine pairing not given here) [674] | 230 | – |
| Ac-SLEEEWAQIQCEVWGRGCQRPEPFYDWFERQL (cysteine pairing not given here) [S642] | 0.14 | 39 |
| Ac-SLEEEWAQIQCEVWGRGCPSGGSTFEDYLHNVVFVPRPS (cysteine pairing not given here) [658] | ~1000 | – |
| SLEEEWAQIEAEVWGRGAPPSESFYDWFERQLGY [649] | 14 | 0.4 |
| SLEEEWYQVECEVYGRGCPSESFYDWFERQL [691] | 25 | 0.3 |
| SLEEEWAQVECEVYHRGCPSESFYDWFERQL [695] | 9.8 | 0.6 |
| SLEEYWAQVECEVYGRGCPSESFYDWFERQL [689] | 15 | 0.4 |
| SLEEEWAQVECEVYGRVCPSESFYDWFERQL [693] | 75 | 0.1 |
| SLEEHWHQVECEVYGRGCPSESFYDWFERQL [697] | 72 | 0.1 |
| SLEEEWAQVECEVYGRHCPSESFYDWFERQL [692] | 7.7 | 0.8 |
| SLEEEWAQVECEVYGRFCPSESFYDWFERQL [694] | 26 | 0.3 |
| Ac-HLEEEWSEIQCELWGRGCPSEDFYDWFEAQLHA (cysteine pairing not given here) [620] | 69 | 1 |
| GSLDESFYDWFERQLGKKY [670] | 850 | – |
| HLEEEWSEIQCELWGRGCPSEDFYDWFEAQLHA [617] | 3.9 | 1 |
| Ac-SLEEEWAQIQCEVWGRGCPSESFYGWFQAQL (cysteine pairing not given here) [668] | 2.3 | 2.8 |
| Ac-SLEEEWAQIQCEVWGRGCQRPEPFYDWFAEQLDD (cysteine pairing not given here) [655] | 0.63 | 8.7 |
| Ac-SLEEEWAQIECEVYGRGCPSESFYHWFERQL (cysteine pairing not given here) [S665] | 1.9 | 3.4 |
| Ac-SLEEEWAQIQCEVWGRGCPSEAFYDWFHEQLDD (cysteine pairing not given here) [662] | 2 | 3.3 |
| HQLEEEWQAIQCELWGRGCPSEDFYDWFEAQLHA [616] | 1.5 | 4 |
| HELEEEWKRIECELWGRGCPSEDFYDWFEAQLHA [618] | 4.6 | 1 |

These molecules were tested against human insulin receptor isoform with exon 11 (human) (UniProt P06213) (assay: receptor binding, standard methods (FIG. 2)). Conditions: not given.

| Molecule | relative affinity |
| --- | --- |
| Ac-SLEEEWAQIQCEVWGRGCPSESFYDWFERQLG (cysteine pairing not given here) [S671] | 98 |

What follows are molecules tested against rat insulin receptor isoform with exon 11 (rat) (UniProt P15127) (assay: receptor binding, standard methods (FIG. 2)). Conditions: not given.

| Molecule | relative affinity |
| --- | --- |
| Ac-SLEEEWAQIQCEVWGRGCPSESFYDWFERQLG (cysteine pairing not given here) [S671] | 65 |
